Measurements published in patent US6759384 (AVENTIS PHARMACEUTICALS, dated 2004).
Starred links: 1 amine or outer side, 2 acyl side, 3 side chain; linkers in the order of their positions; H or OH if unused. Non-standard residues stand in square brackets, D forms with d. *: point of attachment. (iBu)F(pNH2) = N-alpha-isobutyl-4-amino-phenylalanine, CC(C)CN([C@@H](Cc1ccc(N[*:3])cc1)C(=O)[*:2])[*:1]; (iBu)Phe(4-NH2) = N-isobutyl-4-amino-L-phenylalanine, CC(C)CN([C@@H](Cc1ccc(N[*:3])cc1)C(=O)[*:2])[*:1]; (iBu)Y = N-alpha-isobutyl-tyrosine, CC(C)CN([C@@H](Cc1ccc(O[*:3])cc1)C(=O)[*:2])[*:1]; Phe(4-amidino) = N=C(N)c1ccc(C[C@H](N)C(=O)O)cc1; Phe(4-NH2) = Nc1ccc(C[C@H](N)C(=O)O)cc1; Chg = N[C@H](C(=O)O)C1CCCCC1; Tfa = O=C(C(F)(F)F)*

B1: 5-Bzim-CO-F(pNH2)-Chg-R-L-P-NH2 (peptide)
peptide: {5‑benzimidazolecarbonyl}-[Phe(4-NH2)][Chg]RLP-NH2
notes: also called (5-benzimidazoyl)-Phe(NH2)-Chg-Arg-Leu-Pro-NH2
B2: Tfa-(iBu)F(pNH2)-Chg-R-L-P-NH2 (peptide)
peptide: Tfa-[(iBu)F(pNH2)][Chg]RLP-NH2
SMILES: CC(C)C[C@H](NC(=O)[C@H](CCCNC(=N)N)NC(=O)[C@@H](NC(=O)[C@H](Cc1ccc(N)cc1)N(CC(C)C)C(=O)C(F)(F)F)C1CCCCC1)C(=O)N1CCC[C@H]1C(N)=O
notes: also called CF3C(O)-(iBu)Phe(NH2)-Chg-Arg-Leu-Pro-NH2
B3: Tfa-(iBu)Y-I-R-L-P-NH2 (peptide)
peptide: XIRLP
modifications: N-term Tfa; N-(iBu) on Y1; C-term NH2
B4: Ac-(2-Me-nBu)Y-I-R-L-P-NH2 (peptide)
peptide: XIRLP
modifications: N-term Ac; N-(2-Me-nBu) on Y1; C-term NH2
B5: Ac-Y-Chg-R-L-P-NH2 (peptide)
peptide: Ac-Y[Chg]RLP-NH2
SMILES: CC(=O)N[C@@H](Cc1ccc(O)cc1)C(=O)N[C@H](C(=O)N[C@@H](CCCNC(=N)N)C(=O)N[C@@H](CC(C)C)C(=O)N1CCC[C@H]1C(N)=O)C1CCCCC1
notes: also called Ac-Tyr-Chg-Arg-Leu-Pro-NH2
B6: Tfa-(iBu)Y-Chg-R-L-P-NH2 (peptide)
peptide: Tfa-[(iBu)Y][Chg]RLP-NH2
notes: also called Tfa-(iBu)Tyr-Chg-Arg-Leu-Pro-NH2
B7: (iBu)Y-I-R-L-P-NH2 (peptide)
peptide: XIRLP
modifications: N-(iBu) on Y1; C-term NH2
B8: y-I-R-L-P-NH2 (peptide)
peptide: YIRLP
modifications: D-Tyr at 1; C-term NH2
notes: also called (D)-Tyr-Ile-Arg-Leu-Pro-NH2
B9: Ac-pAph-I-R-L-P-NH2 (peptide)
peptide: Ac-[Phe(4-amidino)]IRLP-NH2
SMILES: CC[C@H](C)[C@H](NC(=O)[C@H](Cc1ccc(C(=N)N)cc1)NC(C)=O)C(=O)N[C@@H](CCCNC(=N)N)C(=O)N[C@@H](CC(C)C)C(=O)N1CCC[C@H]1C(N)=O
B10: Ac-(Chx-CH2)Y-I-R-L-P-NH2 (peptide)
peptide: XIRLP
modifications: N-term Ac; N-(Chx-CH2) on Y1; C-term NH2
notes: also called Ac-(Chx-CH2)Tyr-Ile-Arg-Leu-Pro-NH2; Ac-(Chx-CH2)-Tyr-Ile-Arg-Leu-Pro-NH2
B11: Ac-(iBu)Y-I-R-L-P-NH2 (peptide)
peptide: XIRLP
modifications: N-term Ac; N-(iBu) on Y1; C-term NH2
B12: Ac-(iBu)F(pNH2)-Chg-R-L-P-NH2 (peptide)
peptide: Ac-[(iBu)Phe(4-NH2)][Chg]RLP-NH2
notes: also called Ac-(iBu)-Phe(pNH2)-Chg-Arg-Leu-Pro-NH2
B13: Ac-(2-Me-nPentyl)Y-I-R-L-P-NH2 (peptide)
peptide: XIRLP
modifications: N-term Ac; N-(2-Me-nPentyl) on Y1; C-term NH2
notes: also called Ac-(CH3CH2CH2CH(CH3)CH2)-Y-I-R-L-P-NH2

What was measured:
[1] = biological target: T1, human factor Xa (Enzyme Research Laboratories, Inc.) (human, UniProt P00742 41-179; P00742 235-488, limits assumed); test: chromogenic FXa inhibition
How it was run: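 Human FXa (0.5 nM) preincubated 10 min with inhibitor in TBS-P (pH 7.8, 200 mM NaCl, PEG-8000), then S-2765 added (140 μM). Initial hydrolysis rate read at 405 nm, 25° C.; IC50 by linear regression of relative rate vs log concentration.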

[2] = biological target: T1, human factor Xa (Enzyme Research …); test: chromogenic FXa inhibition; remark: listed apart in the source
Experimental: (§1) TBS-P buffer (50 mM Tris-Cl, pH 7.8, 200 mM NaCl, 0.05% (w/v) PEG-8000, 0.02% (w/v) NaN_3) was used for this assay. The IC$50$ was determined by combining in appropriate wells of a Costar half-area microtiter plate 25 μl human factor Xa (Enzyme Research Laboratories, Inc.; South Bend Ind.) in TBS-P; 40 μl 10% (v/v) DMSO in TBS-P (uninhibited control) or various concentrations of a peptide to be tested diluted in 10% (v/v) DMSO in TBS-P; and substrate S-2765 (Nα-benzyloxycarbonyl-D-Arg-Gly-L-Arg-p-nitroanilide; Kabi Pharmacia, Inc.; Franklin Ohio) in TBS-P.
(§2) The assays were performed by pre-incubating the peptide inhibitor plus enzyme for 10 min, then the assay was initiated by adding substrate to obtain a final volume of 100 μl. The initial velocity of chromogenic substrate hydrolysis was measured by the change in absorbance at 405 nm using a Bio-tek Instruments kinetic plate reader (Ceres UV900HDi) at 25° C. during the linear portion of the time course (usually 1–5 min after addition of substrate). The concentration of inhibitor that caused a 50% decrease in the rate of substrate hydrolysis was predicted by linear regression after plotting the relative rates of hydrolysis (compared to the uninhibited control) versus the log of the peptide concentration. The enzyme concentration was 0.5 nM and substrate concentration was 140 μM.

[3] = biological target: T1, human factor Xa (Enzyme Research …); test: cell-based or functional assay
[4] = biological target: T1, human factor Xa (Enzyme Research …); test: chromogenic FXa inhibition; remark: listed apart in the source
Experimental: as §1, §2

[5] = biological target: T1, human factor Xa (Enzyme Research …); test: chromogenic enzyme inhibition, IC50 corrected for substrate
[6] = biological target: human thrombin (Enzyme Research Laboratories, Inc.) (human, UniProt P00734 328-622); test: as above

T1 sequence (P00742 41-179 limits assumed, chain 1 of 2): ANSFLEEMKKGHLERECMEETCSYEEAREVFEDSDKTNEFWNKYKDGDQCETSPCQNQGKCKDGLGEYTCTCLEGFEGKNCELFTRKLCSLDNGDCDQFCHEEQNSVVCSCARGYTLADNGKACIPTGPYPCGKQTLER
T1 sequence (P00742 235-488 limits assumed, chain 2 of 2): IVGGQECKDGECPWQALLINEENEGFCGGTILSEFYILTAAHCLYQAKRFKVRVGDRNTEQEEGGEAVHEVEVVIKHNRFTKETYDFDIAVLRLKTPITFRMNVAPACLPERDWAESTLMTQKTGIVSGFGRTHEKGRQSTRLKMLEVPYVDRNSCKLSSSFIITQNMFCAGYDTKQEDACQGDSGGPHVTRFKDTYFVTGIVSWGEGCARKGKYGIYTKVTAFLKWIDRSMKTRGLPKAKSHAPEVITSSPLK

Binder	Ki [1] [µM]	Ki [2] [µM]	EC50 (concentration giving 50% inhibition of coagulation), in vitro dilute prothrombin time assay, pooled human plasma [3] [µM]	Ki [4] [µM]	Ki [5] [µM]	Ki [6] [µM]
B1	< 100	< 100				
B2	< 100	< 100				
B3	< 100	< 100				
B4	< 100	< 100				
B5	< 100	< 100	0.225			
B6	< 100		0.3			
B7	< 100			2.6		
B8	< 100				0.2	
B9	< 100	< 100				
B10	< 100	< 100				
B11	< 100				0.04	25
B12	< 100	< 100				
B13	< 100	< 100				
